This note sets out measurements from publication PMC11931385, “Structural and functional analysis of cancer-associated missense variants in the retinoblastoma protein pocket domain” (The Journal of Biological Chemistry, 2025).

Conditions in all cases: both partners purified
Experiment [1] deals with T1, Rb^P R621C (human, UniProt P06400 380-788, R621C).
T1 construct: also called variant 41
T1 sequence (looked up): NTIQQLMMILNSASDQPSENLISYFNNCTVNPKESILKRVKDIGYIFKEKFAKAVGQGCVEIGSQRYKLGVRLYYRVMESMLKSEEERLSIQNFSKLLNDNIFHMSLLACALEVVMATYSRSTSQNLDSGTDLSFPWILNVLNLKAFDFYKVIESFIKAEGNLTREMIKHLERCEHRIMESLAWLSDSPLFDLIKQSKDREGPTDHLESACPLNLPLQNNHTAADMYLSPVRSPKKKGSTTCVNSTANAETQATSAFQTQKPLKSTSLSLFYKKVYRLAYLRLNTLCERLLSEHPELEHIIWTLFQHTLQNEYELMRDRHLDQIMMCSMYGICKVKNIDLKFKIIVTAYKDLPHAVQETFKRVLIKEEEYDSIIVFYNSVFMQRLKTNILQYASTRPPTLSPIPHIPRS
The experiment in a line: fluorescence polarisation; 37 °C, after the 25 °C reading ramped over 7 min to 37 °C and 2 min incubation; unlabeled Rb^P against 1.5 nM TMR-E2F1^TD or 7.5 nM TMR-E7^LxCxE; 25 mM Tris pH 8.0, 200 mM NaCl, 1 mM DTT, 0.1% Tween-20; apparent Kd. For orientation: Fluorescence polarisation rises when a labelled molecule tumbles more slowly, as on binding a larger partner.

The target of experiment [2] is T2, Rb^P V654L (human, UniProt P06400 380-788, V654L).
T2 construct: also called variant 47
T2 sequence (looked up): T1 sequence (looked up) with C242R, V275L
Described as above.

Experiment [3] has as its target T3, Rb^P H699P (human, UniProt P06400 380-788, H699P).
T3 construct: also called variant 63
T3 sequence (looked up): T1 sequence (looked up) with C242R, H320P
Described as above.

The target in experiment [4] is T4, Rb^P R741S (human, UniProt P06400 380-788, R741S).
T4 construct: also called variant 70
T4 sequence (looked up): T1 sequence (looked up) with C242R, R362S
The experiment is described as above.

The target of experiment [5] is T5, Rb^P I703F (human, UniProt P06400 380-788, I703F).
T5 construct: also called variant 64
T5 sequence (looked up): T1 sequence (looked up) with C242R, I324F
The experiment in a line: fluorescence polarisation; 25 °C after warming to 37 °C (7 min ramp, 2 min at 37 °C), 1 min on ice and 3 min at 25 °C; unlabeled Rb^P against 1.5 nM TMR-E2F1^TD or 7.5 nM TMR-E7^LxCxE; 25 mM Tris pH 8.0, 200 mM NaCl, 1 mM DTT, 0.1% Tween-20; apparent Kd.

Positions count from the first letter of the chain named. Names and notes keep the numbering of the source. No end group written: not given here. TMR = tetramethyl rhodamine dye

B1: TMR-E2F1^TD, peptide of the E2F1 transactivation domain (peptide)
peptide: {TMR}-GEGIRDLFDCDFGDLTPLD
notes: also called E2F^TD; source: synthetic peptide, bought: GenScript
On to B1, for which the Kd in experiment [1] stood at 43 nM; in experiment [2], 30 nM; in experiment [3], 68 nM; in experiment [4], 84 nM; in experiment [5] it was 94 nM.

B2: TMR-E7^LxCxE, LxCxE peptide of the E7 oncoprotein from HPV (peptide)
peptide: DLYCYEQLN
modifications: also: TMR label, position not given here
notes: source: synthetic peptide, bought: GenScript
B2: the Kd in experiment [1] is 30 nM; in experiment [2], 21 nM; in experiment [3], 14 nM; in experiment [4], 46 nM; in experiment [5] it was 53 nM.
